According to the nanobody polyreactivity screen of Harvey et al. (2022):

Assay: yeast display, Sf9 membrane polyspecificity reagent, FACS + sequencing; frameworks hold sequencing errors
Outline: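 A nanobody's polyreactivity label depends on the gate it was sorted from. Yeast display cells were stained with 10% biotinylated, detergent-solubilized Sf9 membrane reagent for 1 hour at 4 °C, enriched on streptavidin microbeads and sorted by FACS. The low and high (top ~1%) gates were set on anti-HA fluorescence for expression and streptavidin fluorescence for reagent binding.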

Sequence | polyreactivity (PSR sort gate)
QVQLVESGGGLVQAGGSLRLSCAASGLTFPSYAMGWYRQAPGKERELVAAISRRSGSTYYADSVKGRFTISRDNAKNTVYLQMNSLKPEDTAVYYCTTRRGERGYWGQGTQVTVSS | high polyreactivity
QVQLVESGGGLVQAGGSLRLSCAASGRIFGLYAMGWYRQAPGKERELVAAISSRGGNTYYADSVKGRFTISRDDAKNTVYLQMNSLKPEDTAVYYCARDSYSLSRTYDSWGQGTQVTVSS | high polyreactivity
QVQLVESGGGIVQAGGSLGLSCGASGRTCRKFSMGWYSQAPGNAWEVVAAISSRGGSTYYADSVKGRFTSSRDNAKNTVYLQMNSLIPEDTAVYYCATDSIPPSSEGDYWGQGTQGTVSS | high polyreactivity
QVQLVESVGGLDQAGGSLPVSCAASGLTFTGYTMGWYRQAPWKERELVATISGSGGNTDYADSVKARFTISRDKAKNTVDLQMNSLKPEDTAVYYCASRRSGPLVLYYYWGQGTQVTVSS | low polyreactivity
QVQLLESRGGLVQAGGSLRLSCAASGRNFGRYTMGWYRQAPGKERELVAAISARGGSTYYADSVKGRFTISRDNAKNTVYLQMNSLKPEDTAVYYCNTVRVHGFPIDRIYDYWGQGTQVTVSS | high polyreactivity
QVQLVESGGGLVQAGGSLRLSCAASGLTFVANAMGWYRQAPGKERELVAAIDYGGGHTYYADSVKGRFTNSRDNAKNTVYLQMNSLKPEDTAVYYCAVGLPHGGRRLYGSWYRFDYWGQGTQVTVSS | low polyreactivity
QVQLVESGGGLVQAGGSLRLSCAASGSIFALYAMGWYRQAPGKERELVAAISWRAGGTYYADSVKGRFTISRDNAKNTVYLQMNSLKPEDTAVYYCAAEISLYYYGDYEYWGVGTQVTVSS | high polyreactivity
QVQLVESGGGLVQAGGSLRLSCAASGIIFINYVMGWYRQAPGKESELVAAITGSGSSTYYADSVKGRFTISRDNAKNTVYLQMNSLKPEDTAVYYCAADNPRVRFLYYYWGQGTQVTVSS | high polyreactivity
QVQLEESGGGLVQAGGSLRLSCAASGSIFGNAMGWYRQAPGKEREFVAAISSSGSSTYYADSVKGRFTISRDNAKNTVYLQMNSLKPEDTAVYYCAKRRRSADPKYDYWGQGTQVTVSS | high polyreactivity
QVQLVESGGGLVQAGGSLRLSCAASGSIFDFYAMGWYRQAPGKVRELVAAITSGSNTYYADSVKGRFTISRDNAKNTVYLQMNSLKPEDTAVYYCAARRRIYRSMGYWGQGTQVTVSS | low polyreactivity
QVQLVESGGGLVQAGGSLRLSCAASGLTFSDYAMGWYRQAPGKERAFVAAITRNGGSTRYADSVKGRFTISRDNAKITVYLQMHSLKPEDTAVYYCATDVGFGRKQRPHRPGYGYWGQGTQVTVSS | low polyreactivity
QVQLVESGGGLVQAGGSLRLSCAASGITFDKNTMGWYRQAPGKERELVAAISARGGSTYYADSVKGRFTISRDNAKNTVYLQMNSLKPEDTAVYSCAADYSARYGYWGQGTQVNVSS | high polyreactivity
QVQLVESGGGIVQAGGSLRLSCAASGFTFWVYAMGWSRQAPGNEWQLVAAISARGGSTYYADSVKVRFTISRDNAKNTVYLQMNSLKPVDTEVYYCAAEPSGKRSKFYYWGHGTQVTVSS | high polyreactivity
QVQLVESGGGLVQAGGSLRLSCAASGITFYGNAMGWYRQAPGKERELVATISRSDGRTYYADSVKGRFTISRDNANNTVYLQMNSLKPEDTAVYYCAAYTTRPYWGQGTQVTVSS | high polyreactivity
QVQLEESGGGLVQAGGSLRLSCAASGLTFRSYAMGWYRQAPGTEREFVAAITGSGDTTYYAVSVKGRFTISRDNALNTVYLQMNSLNPEETAGYYCNADRDYLWITLYEYWGQGTQLTVSS | high polyreactivity
QVQHVESGGGLVQAGGSLRLSCAASGRTFNFNTMGWYRQAPGKERELVASITSGGSTNYADSVKGRFTISRDKAKNTVYLQMNSLKPVDTAVYYCATRTTTFWFDYWVQGTQVTVSS | low polyreactivity
QVQLVESGAGLVQAGCRLRLSCASSGIIFSPNAIGWYRQAPGKERELVAAISKRGGSTYYADSVKGRFTISRDNAKNTVYLQLHSLKQEDTAVYYCAKRQQQSSGYDYWGQGTQVTVSS | high polyreactivity
QVQLVESGGGLVQAGGSLRLSCAASGNTFTYYAMGWYRQAPGKERELVAAISSGGRTYYADSVKGRFTISRDNAKNTVYLQMNSLKPEDTAVYYCAARIKYGYPGPRYYYWGQGTQVTVSS | high polyreactivity
QVQLVESGGGLVQAGGSLRLSCAASGRIFVYYAMGWYRQAPGKERELVASISYSGASTYYADSVKGRFTISRDNAKNTVYLQMNSLKPEDTAVYYCATDVRGVDGEDDYWGQGTQVTVSS | low polyreactivity
QVQLVESGGGLVQAGGSLRLSCSASGSTFTAYAMGWSRQAPGKERELVATISDSGGSTYYADSVKGRFTISRDNAKNTVYLQMNSLKPEDTAVYYCAADVYSYFYQVVYTFDYWGQCTQVTVSS | low polyreactivity
QVQLVESGGGLVQAGGSLRLSCAASGRTFRLYAMGWYRQAPGKERELVAAITENGGSTYYADSVKGRFTISRDNAKNTVYLQMTSLKPEDTAVYYCAAKRYSRYNYWGQCTQVTVSS | high polyreactivity
QEQLQERAAWCRRAGSLRLSCAASGNISDYYFMGWYRQAPGKERELVAAIAPGSNTYYADSVKGRFTISRDNAKNTVYLQMNSLKPEDTAVCFCAANSTQYTWFDYWGQGTQVPVSS | low polyreactivity

Sequence | polyreactivity (PSR sort gate)
QVQLVESGGGLVQAGGSLRLSCAASGSTFTFYTMGWYRQAPGKERELVAAITISAGSTYYADSVKGRFTFSRDNAKNTVYLQMNSLKPEDSAVYYCAADTYAHWGYYGSYYRDDYWGQGTQVTVSS | low polyreactivity
QVQLVESGGGLVQAGGSLRLSCAASGSTFVPNAMGWYRQAPGKERELVADITSGGITNYADSVKGRFTISRDNAKNTVYLQMISLNPEDTGVYYCAVLYYILAPGYDYWGQGTLVTVSS | low polyreactivity
QVQLVQSGGGLVQAGGSLRLSCAASGIIFYVYAMGWYRQAPGKERELVAAISRSGGRTYYADSVKGRFTISRDNPKNTVYLQMNSLKPEDTAVYYCAAVYPRQVSQVWRDDYWGQGTQVTVSS | high polyreactivity
QVQLVESGGGLVQAGGSLRLSCAASGLTFGFNAMGWYRQAPGKERELVAVIDSGGSTNYADSVKGRFTISRDNAKNTVYLQMNSLKPEDTAVYYCAADYTGFYPDGSDVDYDYWGQGTQVTVSS | low polyreactivity
QFQLVESGGGLVQPGGRLRLICAASGHNFPLNAMGWYRQAPGKERELVAAISRTGGSTYYADSVKGRFTISRDNAKFSVYLQMNSLKPEDTALYFCAKRGQACEDYWGEGTQVTVSS | high polyreactivity
QVQLVESGGGLVQAGGSLRLSCAASGFIVWVYAMGWYRQAPGKERELVAAITSGGGSTYYADSVKGRFTISRDNAKNTVYLQMNSLKPEHTAVYYCNAVSWEGYDFDYWGQGTQVTVSS | high polyreactivity
QVQLVESGGGLVQAGGSLRLSCAASGRIFWSYAMGWYRQAPGKERELVAAIRSGGTTDYADAVKGRFTISRDNAKYTVYLQMNSLKPEDTADYYCNREYRGAINYIYYYWGQGTQVTVSS | low polyreactivity
QVQLVESGRGLVQAGGSLRLSCAASGRTLAFNAMGWYRQAPGKERELVAVIRNGTSTNYADSVKGRFTISRDNAKNTVYLQMNSLKPEDTAVYYCNVPYYLPSYLSGYDYWGQGTQVTVSS | low polyreactivity
QVQLVESGGGVVQAGGSLRLSCAASGINFGRNTMGWYRQAPGKERELVAAIDSGGNTYADSVKGRFTISRDNAKNTVYLQMNSLKPEDTAVYYCAVDGGEFSSYGYWGQGTQVTVSS | low polyreactivity
QVQLVESGGGLVQAGGSLRLSCAASGFTFRKNVMGWYRQATGKERELVAVISSSGGSTYYADSVKGRFTISRDNAKNTVYLPMNRLKPEVTAVYYCNAGRYGSNLEYWGQGTQLTVSS | low polyreactivity
QVQLVESGGGLVQAGGSLRLSCAASGRIFEHNAMGWSRQAPGKEMEFVAAISSSGGSTYYADSVKGRFTISRDNAKNTVYLQMNSLKPEDTAVYYCNAGSTYYERNYWGQGTQVTVSS | low polyreactivity
QVQLVESGGGLVQAGGSLRLSFAASGSIFPSYAMVWYRQAPGKERELVARISSGDDSTYYADSVKGRFTISRDNAKNTVYLQMNSLKPEDNAVYYCAADYPDVVYLEYDYWGQGTQVTVSS | low polyreactivity
QVQLVESGGGLVQAGGSLRLSCAASGRTFVYNAMGWYRQAPGKERELVAAITWNGGSTYYADSVKGRFTISRDNAKNTVYLQMNSLKPEDTAVYYCNRDVRYVGPSGFDYWGQGTQVTVSS | high polyreactivity
QVQLVESGGGLVQAGGSLRFSCAASGGIYYLYAMGWYRQAPGKEREFVAAISSSGGSTNYADSVMGRFTISRDNAKNTVYLQMNSLKRDDSAVYYCNAVDWKQEVGGWVEYDYWGQGTQVNVSS | high polyreactivity
QVQLVESWGGLVQAGGSLRLSCAASGIFYPMGWYTQAPGKERELVAAISSVGSTKYADSVKGRFTISRDNAKNTVYFQINSLKPEDTAVYYSNADVTRASSRYNSWGQGTQVTVSS | low polyreactivity
QVHLVESGGGLVQAGGSLRLSCASSGGTFPPNTMGWYRQAPGKEREFVAAITWRGSSTYYADSVKGRFTISRDNAKITFFLQMNSLKPEDSAVDYCAARRAYERMGFWGQGTQVTVSS | high polyreactivity
QVQHVESGGGLVQAGGSLRLSSAASGSIFTFYAMGWSRQAPGKEMELVADITGRGSRTYYADSVTGRFTISRDNAKNTVYLKMNSLKPEDTAVYYCAAGHDRYYQSEYGYWGQGTQVTVSS | high polyreactivity
QVQLVESGGGLVQAGGSLRLSCAASGLIFSSYAMGWYRQAPGKERELVAAITGSGGRTYYADSVKGRFTISRDNAKNTVYLQMNSLKPEDTAVYYCAAKYPAPRYYTGYDYWGQGTQVTVSS | high polyreactivity
QVQLVESGGGLVQAGGSLRLSCAASGYIYYQYAMGWSRQAPGKERELVAGINWRGGSTYADSVKGRFTISRDNAKNTVYLQMNSLKPEDTEVYYCNAKQYRQDVFRRPSYYAYYYWGQGTQVTVSS | high polyreactivity
QVQLVESGGGLVQAGGSLRLSCAASGYTFWQYAKGWYRQAPGKERELVVTITSRGGSTYYADSVKGRFTISRDNAKNTVYLHMNSLKPEDTAVYYCNARRRYSTRRSDYWGQGTQVTVSS | high polyreactivity
QVQLVESGGGLVQAGGSLRLSCAASGRTFAYYTMGWYRQAPGKERELVAAITSSGGSTYYADSVKGRFTISRDNAKNTVYLQMNSLKPEDTAVYYCNAYGLRWASRLGYDYWGQGTQVTVSS | high polyreactivity
